Patent US20150307603A1 (MODIQUEST B V, published 2015)
Non-standard residues stand in square brackets, D forms with d. No end group written: not given here. Cit = NC(=O)NCCC[C@H](N)C(=O)O

Assays:
[1] = molecular target: T1, huPAD4-deiminated human recombinant histone 2A (human); test: ELISA, Ab 10 ug/well
T1 construct: also called H2A/p4; histone 2A/p4
Text: (§1) The resulting OD (y-axis) is a measure for antibody binding. H1-recombinant histone 1; H1/p2-huPAD2 recombinant histone 1; H1/p4-huPAD4 recombinant histone 1, and so forth (x-axis).

[2] = molecular target: T2, huPAD4-deiminated human recombinant histone 3 (human); test: ELISA, Ab 10 ug/well
T2 construct: also called H3/p4
Text: as §1

[3] = molecular target: T3, human recombinant histone 4 (human, UniProt P62805 2-103); test: ELISA, Ab 10 ug/well
Text: as §1

CFC-1 [4] = molecular target: T4, CFC-1; test: ELISA, Ab 10 ug/well
T4 construct: Positive control for anti-citrulline reactivity; also called cfc1 XG; Cfc1-peptide
Text: as §1

[5] = molecular target: T5, human recombinant histone 2A (human); test: ELISA, Ab 10 ug/well
T5 construct: Non-deiminated; also called H2A
Text: as §1

[6] = molecular target: T6, huPAD2-deiminated human recombinant histone 2B (human); test: ELISA, Ab 10 ug/well
T6 construct: also called H2B/p2
Text: as §1

[7] = molecular target: T7, huPAD2-deiminated human recombinant histone 2A (human); test: ELISA, Ab 10 ug/well
T7 construct: also called H2A/p2; histone 2A/p2
Text: as §1

[8] = molecular target: T8, human recombinant histone 2B (human); test: ELISA, Ab 10 ug/well
T8 construct: Non-deiminated; also called H2B
Text: as §1

[9] = molecular target: T9, huPAD2-deiminated human recombinant histone 3 (human); test: ELISA, Ab 10 ug/well
T9 construct: also called H3/p2; histone 3/p2
Text: as §1

[10] = molecular target: T1, huPAD4-deiminated human recombinant …; test: ELISA, Ab 0.08 ug/well
Text: as §1

[11] = molecular target: T2, huPAD4-deiminated human recombinant …; test: ELISA, Ab 0.08 ug/well
Text: as §1

[12] = molecular target: T3, human recombinant histone 4; test: ELISA, Ab 0.08 ug/well
Text: as §1

CFC-1 [13] = molecular target: T4, CFC-1; test: ELISA, Ab 0.08 ug/well
Text: as §1

[14] = molecular target: T5, human recombinant histone 2A; test: ELISA, Ab 0.08 ug/well
Text: as §1

[15] = molecular target: T10, huPAD4-deiminated human recombinant histone 2B (human); test: ELISA, Ab 0.08 ug/well
T10 construct: also called H2B/p4
Text: as §1

[16] = molecular target: T6, huPAD2-deiminated human recombinant …; test: ELISA, Ab 0.08 ug/well
Text: as §1

[17] = molecular target: T7, huPAD2-deiminated human recombinant …; test: ELISA, Ab 0.08 ug/well
Text: as §1

[18] = molecular target: T8, human recombinant histone 2B; test: ELISA, Ab 0.08 ug/well
Text: as §1

[19] = molecular target: T9, huPAD2-deiminated human recombinant …; test: ELISA, Ab 0.08 ug/well
Text: as §1

CFC-1 [20] = molecular target: T4, CFC-1; test: ELISA, Ab 0.016 ug/well
Experimental: (§2) Biotin and citrulline-containing peptides derived from fibrinogen and vimentin were immobilized on NEUTRAVIDIN®-coated 96-well ELISA plates (0.3 μg/well). CFC-1 and CFC-0 were coated at the same concentration and served as positive and negative controls, respectively, for specific anti-citrulline reactivity and as coating controls. Non-coated wells were used to test for aspecific binding of the antibodies. […] Detection of bound anti-citrulline antibodies was performed by incubating the wells with rabbit anti-human HRP (1:2000) for 1 hour at RT followed by incubation with TMB substrate. The resulting OD (y-axis) is a measure for antibody binding.
(§3) Biotin-labeled and citrulline-containing fibrinogen and vimentin peptides (Table 5) were also tested for reactivity with the therapeutic antibodies. Peptides were coated on 96-well NEUTRAVIDIN®-ELISA plates.

huFibα XH [21] = molecular target: T11, huFibα XH (human, X at position 15 = citrulline; biotin-labelled); test: ELISA, Ab 0.016 ug/well
T11 peptide: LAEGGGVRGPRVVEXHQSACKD
Experimental: as §2, §3

msFibβ XG [22] = molecular target: T12, msFibβ XG (mouse, also: biotin-labelled); test: ELISA, Ab 0.016 ug/well
T12 construct: also called mouse fibrinogen β peptide
T12 peptide: EPTDSLDA[Cit]GHRPVDRR
Experimental: as §2, §3

msFibα XH [23] = molecular target: T13, msFibα XH (mouse, X at position 15 = citrulline; biotin-labelled); test: ELISA, Ab 0.016 ug/well
T13 peptide: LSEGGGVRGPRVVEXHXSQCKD
Experimental: as §2, §3

msFibα XG [24] = molecular target: T14, msFibα XG (mouse, X at position 8 = citrulline; biotin-labelled); test: ELISA, Ab 0.016 ug/well
T14 peptide: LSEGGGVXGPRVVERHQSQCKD
Experimental: as §2, §3

msVim XS/XL [25] = molecular target: T15, msVim XS/XL (mouse, also: biotin-labelled); test: ELISA, Ab 0.016 ug/well
T15 construct: also called mouse vimentin peptide
T15 peptide: YVT[Cit]SSAV[Cit]L[Cit]SSVP
Experimental: as §2, §3

huFibα XG [26] = molecular target: T16, huFibα XG (human, X at position 8 = citrulline; biotin-labelled); test: ELISA, Ab 0.016 ug/well
T16 peptide: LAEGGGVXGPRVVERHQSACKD
Experimental: as §2, §3

CFC-1 [27] = molecular target: T4, CFC-1; test: ELISA, Ab 0.00064 ug/well
Experimental: as §2, §3

huFibα XH [28] = molecular target: T11, huFibα XH; test: ELISA, Ab 0.00064 ug/well
Experimental: as §2, §3

msFibβ XG [29] = molecular target: T12, msFibβ XG; test: ELISA, Ab 0.00064 ug/well
Experimental: as §2, §3

msFibα XH [30] = molecular target: T13, msFibα XH; test: ELISA, Ab 0.00064 ug/well
Experimental: as §2, §3

msFibα XG [31] = molecular target: T14, msFibα XG; test: ELISA, Ab 0.00064 ug/well
Experimental: as §2, §3

msVim XS/XL [32] = molecular target: T15, msVim XS/XL; test: ELISA, Ab 0.00064 ug/well
Experimental: as §2, §3

huFibα XG [33] = molecular target: T16, huFibα XG; test: ELISA, Ab 0.00064 ug/well
Experimental: as §2, §3

B1: RhmAb2.102 (antibody, human IgG1, lambda)
heavy: not shown
light: QSVLTQPPSMSAAPGQKVTISCSGSSSNIGNNYVSWYQQVPGTAPKLLIYDDNKRPSGIPGRFSGSKSATSATLGITGLQAGDEADYYCGSWDDNLSVVLFGGGTKLTVLGQPKAAPSVTLFPPSSEELQANKATLVCLISDFYPGAVTVAWKADSSPVKAGVETTTPSKQSNNKYAASSYLSLTPEQWKSHRSYSCQVTHEGSTVEKTVAPTECS
notes: Human IgG1 lambda; also called Rhm2.102
Work on B1 yielded an OD [1] of 3.42 OD450, an OD [2] of 1.31 OD450 and an OD [3] of 0.825 OD450. It also gave an OD (CFC-1 [4]) of 3.48 OD450, an OD [5] of 0.428 OD450 and an OD [6] of 0.31 OD450. It also gave an OD [7] of 3.41 OD450, an OD [8] of 0.247 OD450 and an OD [9] of 2.44 OD450. For the same binder, the OD [10] was 1.75 OD450, the OD [11] was 0.093 OD450 and the OD [12] was 0.067 OD450. It also gave an OD (CFC-1 [13]) of 2.15 OD450, an OD [14] of 0.06 OD450 and an OD [15] of 0.052 OD450. The OD [16] was 0.053 OD450, the OD [17] was 1.96 OD450 and the OD [18] was 0.054 OD450. The OD [19] was 0.493 OD450, the OD (CFC-1 [20]) was 1.22 OD450 and the OD (huFibα XH [21]) was 0.08 OD450. It also gave an OD (msFibβ XG [22]) of 0.174 OD450, an OD (msFibα XH [23]) of 0.081 OD450 and an OD (msFibα XG [24]) of 0.107 OD450. The OD (msVim XS/XL [25]) was 0.201 OD450, the OD (huFibα XG [26]) was 0.103 OD450 and the OD (CFC-1 [27]) was 0.345 OD450. For the same binder, the OD (huFibα XH [28]) was 0.124 OD450, the OD (msFibβ XG [29]) was 0.133 OD450 and the OD (msFibα XH [30]) was 0.088 OD450. For the same binder, the OD (msFibα XG [31]) was 0.116 OD450, the OD (msVim XS/XL [32]) was 0.154 OD450 and the OD (huFibα XG [33]) was 0.125 OD450.
